Source: paper PMC2751797

Substrate: NC(=O)c1cc(N2CC2)c([N+](=O)[O-])cc1[N+](=O)[O-]
Test: purified protein
Assay type: biochemical, Escherichia coli
Details: NADPH 60 μM fixed, 10 mM Tris-HCl pH 7.5, 23 °C

B1: NfsB (His6-NfsB) (Escherichia coli K-12) (protein)
chain: MDIISVALKRHSTKAFDASKKLTPEQAEQIKTLLQYSPSSTNSQPWHFIVASTEEGKARVAKSAAGNYVFNERKMLDASHVVVFCAKTAMDDVWLKLVVDQEDADGRFATPEAKAANDKGRKFFADMHRKDLHDDAEWMAKQVYLNVGNFLLGVAALGLDAVPIEGFDAAILDAEFGLKEKGYTSLVVVPVGHHSVEDFNATLPKSRLPQNITLTEV
B1 was tested, and the Km was 79 ± 22 µM and the kcat/Km was 26000 M⁻¹ s⁻¹.
